# Source: patent publication US5082772A, “Process for preparing deacetylcephalosporin C” (priority 1988, dated 1992)
# B1: recombinantly produced DAOC synthase (Streptomyces clavuligerus) (protein)
# chain: MDTTVPTFSLAELQQGLHQDEFRRCLRDKGLFYLTDCGLTDTELKSAKDLVIDFFEHGSEAEKRAVTSPVPTMRRGFTGLESESTAQITNTGSYSDYSMCYSMGTADNLFPSGDFERIWTQYFDRQYTASRAVAREVLRATGTEPDGGVEAFLDCEPLLRFRYFPQVPEHRSAEEQPLRMAPHYDLSMVTLIQQTPCANGFVSLQAEVGGAFTDLPYRPDAVLVFCGAIATLVTGGQVKAPRHHVAAPRRDQIAGSSRTSSVFFLRPNADFTFSVPLARECGFDVSLDGETATFQDWIGGNYVNIRRTSKA
# notes: made in house; host or cells: Escherichia coli K12 JM109 (plasmid pOW382)
# B2: native synthase (Streptomyces clavuligerus) (protein)
# chain: B1 chain
# notes: native synthase, evaluated with the partially purified enzyme; endogenous in cells; host or cells: Streptomyces clavuligerus cells, crude extract, three-step purification (Mono Q eluate)
# Legend:
# [1] = substrate: O=C(O)CCC(=O)C(=O)O; test: purified protein, by the assay type; details: 36° C.
# [2] = substrate: CC1(C)S[C@@H]2[C@H](NC(=O)CCC[C@@H](N)C(=O)O)C(=O)N2[C@H]1C(=O)O; test: Kinetics of recombinant enzyme (Lineweaver-Burk); format: biochemical, Streptomyces clavuligerus; details: other: recombinant enzyme, pH 7.0, 50 mM HEPES buffer, 36° C.
# Procedure: The kinetics of the native enzyme and recombinant enzyme were determined under the optimal reaction conditions for the enzyme, i.e., at pH 7.0 in 50 mM HEPES buffer at 36° C.
# [3] = substrate: CC1(C)S[C@@H]2[C@H](NC(=O)CCC[C@@H](N)C(=O)O)C(=O)N2[C@H]1C(=O)O; test: Kinetics of native synthase, partially purified (Mono Q eluate); format: biochemical, Streptomyces clavuligerus; details: other: native partially purified enzyme, Tris-HCl buffer, 36° C., pH 7.0
Protein,"Km ([1]; other: recombinant enzyme, pH 7.0, 50 mM HEPES buffer)",Km [2],"Km ([1]; other: native partially purified enzyme, Tris-HCl buffer, pH 7.0)",Km [3]
B1,18 µM,29 µM,–,–
B2,–,–,22 µM,35 µM
